{"source": "patent US20220090139A1", "target": "integrin molecules on human cells (human)", "experiment": "cell-based or functional assay"}
{"binder": "RGD-Hoc, P18056 1-376 (protein) CDCRGDCFCSAMTFTVDITPKTPTGVIDETKQFTATPSGQTGGGTITYAWSVDNVPQDGAEATFSYVLKGPAGQKTIKVVATNTLSEGGPETAEATTTITVKNKTQTTTLAVTPASPAAGVIGTPVQFTAALASQPDGASATYQWYVDDSQVGGETNSTFSYTPTTSGVKRIKCVAQVTATDYDALSVTSNEVSLTVNKKTMNPQVTLTPPSINVQQDASATFTANVTGAPEEAQITYSWKKDSSPVEGSTNVYTVDTSSVGSQTIEVTATVTAADYNPVTVTKTGNVTVTAKVAPEPEGELPYVHPLPHRSSAYIWCGWWVMDEIQKMTEEGKDWKTDDPDSKYYLHRYTLQKMMKDYPEVDVQESRNGYIIHKTALETGIIYTYPKLAAALEHHHHHH", "values": [{"measurement": "luciferase activity", "value": 5, "unit": "fold"}]}
